Among the data in the supplement of paper PMC10567573 are protein stability index values, retold here.

± gives the standard deviation.

The data set is described as follows: protein stability index of a GFP-peptide fusion (GPS, HEK-293T) (PSI 1-6); higher = more stable. The note with it: c terminus: a fixed tail appended.
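Also: 24-mer peptide tiles fused after GFP, lentivirally expressed, FACS-sorted into six equal bins by GFP/DsRed ratio, decoded by Illumina sequencing, PSI is the read-weighted mean bin number.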

SVGTYIIDLLTFLTGQKAVKVHGL [GFOD1] had a protein stability index (treatment: DMSO) of 3.23 ± 0.42 and a protein stability index (treatment: MLN4924 1 uM, 8 h) of 3.32 ± 0.54.
EVLSLGVQVPEAWEELLTMKVEAK [ZSCAN9]: the protein stability index was determined as 3.53 ± 0.67 (treatment: DMSO) and 3.45 ± 0.22 (treatment: MLN4924 1 uM, 8 h).
For RTVDGSPMMKAAMYSVEITVEKDK [PALM], in that order: 4.09 ± 0.18 and 4.1 ± 0.23.
SELPFVPNYLANPAFPFIYTPTAE [ANKRD40]: the protein stability index (treatment: DMSO) worked out at 2.8 ± 0.19 and the protein stability index (treatment: MLN4924 1 uM, 8 h) came to 2.95 ± 0.2.
For VMYTIHMGCHGFRDPFECNMCGYH [IKZF1], in that order: 2 ± 0.45 and 2.4 ± 1.3.
Regarding EHGATLAVIDSEKDMNFLKRYAGR [CD69], the protein stability index reads like this: (treatment: DMSO) 3.84 ± 0.34; (treatment: MLN4924 1 uM, 8 h) 3.95 ± 0.27.
Take DKEGHLVCRIGDWLQERYEIVGNL [CLK3]: the protein stability index by setting is: (treatment: DMSO) 2.8 ± 0.56; (treatment: MLN4924 1 uM, 8 h) 2.89 ± 0.47.
For CSSPGVQACSLPASCCIDPREDGA [TSPAN10], in that order: 4.687 ± 0.023 and 4.6 ± 0.1.
For IPLDLGCTQVTQDGDIPNIPAEEN [FAM189A2], in that order: 5.48 ± 0.12 and 5.48 ± 0.18.
For PDTAPPSERPLEDLRLRLDHLGWV [RTN2], in that order: 3.39 ± 0.44 and 3.24 ± 0.38.
In the case of GFPGERTYNTKVYKMFASRRKQRY [LOXL2], the protein stability index runs as follows: (treatment: DMSO) 2.72 ± 0.42; (treatment: MLN4924 1 uM, 8 h) 2.98 ± 0.51.
Turning to LGRMGKHEQALFIYVHILKDTRMA [VPS39], the protein stability index runs as follows: (treatment: DMSO) 2.89 ± 0.71; (treatment: MLN4924 1 uM, 8 h) 2.98 ± 0.78.
For QGDLASLRAELQGHHAEKLPAGAG [TNFSF13B], in that order: 4.72 ± 0.2 and 4.76 ± 0.18.
In the case of DPANCDYVIVSGAQRKEERWDMAD [YJU2B], the protein stability index reads like this: (treatment: DMSO) 4.74 ± 0.3; (treatment: MLN4924 1 uM, 8 h) 4.63 ± 0.16.
For LHDRGAQVIHPQEFRRWRDTGVAF [DNAAF3], in that order: 2.83 ± 0.2 and 2.99 ± 0.38.
For ETKGQINNSIKDLTDGHFENILAD [SERPINB5], the protein stability index is 4.84 ± 0.42 (treatment: DMSO) and 4.9 ± 0.32 (treatment: MLN4924 1 uM, 8 h).
For FNKDLVQDCGFEHLVPVIEMWADQ [CEP70], in that order: 2.45 ± 0.45 and 2.65 ± 0.61.
For SPAEDFVLVAETTMARIRRVYVSG [APMAP], in that order: 2.22 ± 0.29 and 2.05 ± 0.42.
Turning to MEREFNNLLALGTDRKLDDGDDKV [PPFIA4], the protein stability index reads like this: (treatment: DMSO) 5.47 ± 0.32; (treatment: MLN4924 1 uM, 8 h) 5.34 ± 0.58.
Turning to EFLTKHLRADNAFMLLTQARLFDE [BTBD1], the protein stability index by setting is: (treatment: DMSO) 2.54 ± 0.25; (treatment: MLN4924 1 uM, 8 h) 2.18 ± 0.36.
As to CLFSERDAAGAPRDASDPLAGAAL [SMAD6], the protein stability index (treatment: DMSO) was 4 ± 0.46 and the protein stability index (treatment: MLN4924 1 uM, 8 h) came out at 4.33 ± 0.2.
With IQECVPEDLELKKKIFAQLDSIID [CRYL1], the protein stability index is, setting by setting: (treatment: DMSO) 3.07 ± 0.2; (treatment: MLN4924 1 uM, 8 h) 3.33 ± 0.34.
Turning to AQVLLAMHANVEDRGIKGDITPLM [ANKRD17], the protein stability index runs as follows: (treatment: DMSO) 2.99 ± 0.093; (treatment: MLN4924 1 uM, 8 h) 3.04 ± 0.13.
For TNSSSLRLPRQNSDGGQKNKPREH [WSB1], in that order: 5.02 ± 0.15 and 4.93 ± 0.072.
For FKAVLDGLDVLLAQEVRPRRWKLQ [PRAME], in that order: 2.25 ± 0.19 and 2.41 ± 0.35.
Consider KVHRARKTMPKSVVGLHAASKDPR [EHMT1], for which the protein stability index was found to be 4.1 ± 0.16 (treatment: DMSO) and 4.08 ± 0.31 (treatment: MLN4924 1 uM, 8 h).
For SEIIQITTGSKELDKLLQGGIETG [RAD51], in that order: 4.11 ± 0.34 and 4.3 ± 0.26.
For ELQQELSLKDQERVAEVSRVRVEL [LRRC45], in that order: 3.5 ± 0.17 and 3.78 ± 0.24.
For ARWRRLRLQQLRRLRGLLRVLRGR [FBXO33], in that order: 3.52 ± 0.39 and 3.95 ± 0.65.
As for ASGSTQRQPPPPAPQHPQPGSQAL [FBXO28], the protein stability index reads like this: (treatment: DMSO) 5.14 ± 0.27; (treatment: MLN4924 1 uM, 8 h) 5.12 ± 0.089.
For DDVIVQGDIQELYDTTLALGHAAA [GLT8D2], in that order: 4.47 ± 0.39 and 4.42 ± 0.088.
On to PKGWRQLAQEAEAWLNYPCFKNWD [OAS1], for which the protein stability index is 2.72 ± 0.23 (treatment: DMSO) and 2.82 ± 0.18 (treatment: MLN4924 1 uM, 8 h).
For QLSTPHAVGVLLLGLVGYYIFRVA [DHCR7], in that order: 2.91 ± 0.44 and 2.94 ± 0.35.
For EGAVKMGMPSSLAHRIAAQTLLGT [PYCR3], in that order: 3.08 ± 0.53 and 3.39 ± 0.17.
Regarding FRIIDSDHSGFISLDEFRQTWKLF [PPEF2], the protein stability index by setting is: (treatment: DMSO) 2.97 ± 1; (treatment: MLN4924 1 uM, 8 h) 2.37 ± 0.48.
For TPVILVGCQLDLRYADLEAVNRAR [RHOBTB1], in that order: 2.46 ± 0.09 and 2.34 ± 0.39.
